T1: recombinant feline TK1 (cat, UniProt P04183 2-234 (human entry))
T1 construct: also called rFTK1; cat TK1
T1 chain: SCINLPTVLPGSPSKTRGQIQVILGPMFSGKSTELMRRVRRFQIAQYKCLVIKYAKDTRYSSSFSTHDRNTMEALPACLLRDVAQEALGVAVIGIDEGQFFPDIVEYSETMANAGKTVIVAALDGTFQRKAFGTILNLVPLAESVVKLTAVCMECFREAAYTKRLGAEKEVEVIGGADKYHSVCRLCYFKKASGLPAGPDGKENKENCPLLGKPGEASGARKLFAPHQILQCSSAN

T2: recombinant human TK1 (human, UniProt P04183 1-234, limits assumed)
T2 construct: also called rHTK1; human recombinant TK1
T2 sequence: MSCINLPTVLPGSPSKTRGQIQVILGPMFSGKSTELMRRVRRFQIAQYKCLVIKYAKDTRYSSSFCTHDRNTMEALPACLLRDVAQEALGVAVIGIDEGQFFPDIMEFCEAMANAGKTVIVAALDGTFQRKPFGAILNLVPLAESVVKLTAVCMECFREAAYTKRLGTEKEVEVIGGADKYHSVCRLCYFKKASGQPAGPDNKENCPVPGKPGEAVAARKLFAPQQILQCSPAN

T3: recombinant equine TK1 (horse, UniProt P04183 2-234 (human entry))
T3 construct: also called rETK1; horse TK1
T3 chain: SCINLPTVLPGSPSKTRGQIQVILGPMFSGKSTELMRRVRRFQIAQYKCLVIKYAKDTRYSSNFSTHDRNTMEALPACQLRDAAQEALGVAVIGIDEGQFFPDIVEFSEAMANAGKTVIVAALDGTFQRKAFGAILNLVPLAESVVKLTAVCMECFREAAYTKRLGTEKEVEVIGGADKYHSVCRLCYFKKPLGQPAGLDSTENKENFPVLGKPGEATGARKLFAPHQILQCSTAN

T4: human cytosolic TK1 in CEM TK1+ cell extract (human, UniProt P04183 2-234)
T4 construct: Cell extract with 25 ug (also printed as 25 pg) of protein; also called wild-type of CEM cell extract; cytosolic TK1 from human (CEM+)
T4 sequence: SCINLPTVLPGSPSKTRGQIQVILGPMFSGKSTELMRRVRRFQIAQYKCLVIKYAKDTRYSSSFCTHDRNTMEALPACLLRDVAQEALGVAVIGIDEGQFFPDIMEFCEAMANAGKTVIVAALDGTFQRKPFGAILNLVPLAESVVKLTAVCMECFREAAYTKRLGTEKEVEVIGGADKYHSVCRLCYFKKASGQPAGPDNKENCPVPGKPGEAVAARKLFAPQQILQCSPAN

T5: recombinant canine TK1 (dog)
T5 construct: also called rCTK1; recombinant dog TK1
T5 chain: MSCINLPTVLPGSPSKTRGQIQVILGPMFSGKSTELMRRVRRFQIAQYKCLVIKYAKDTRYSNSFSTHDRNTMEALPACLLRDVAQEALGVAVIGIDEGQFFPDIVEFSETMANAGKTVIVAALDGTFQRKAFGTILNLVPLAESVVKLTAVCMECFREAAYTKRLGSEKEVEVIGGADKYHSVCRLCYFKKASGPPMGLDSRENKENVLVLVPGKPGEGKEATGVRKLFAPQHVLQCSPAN


Assays:
[1] = target: T1, recombinant feline TK1; experiment: ECL dot blot with recombinant TK1, 20 to 0.6 ng
Procedure: (§1) FIGS. 3A-3D show dot blot and Western blot analysis. Recombinant TK1 protein from canine (rCTK1), feline (rFTK1), equine (rETK1) and human (rHTK1) at concentration ranging from 20-0.6 ng was blotted. The membranes were developed with (FIG. 3A) monoclonal antibody produced against active site mAb1 ([…], diluted in TBS containing 3% of non-fat dry milk) and (FIG. 3B) monoclonal antibody produced against C terminal region mAb2 ([…], diluted in TBS containing 3% of non-fat dry milk). Recombinant dog TK1, human TK1 at concentration (10, 5 and 2.5 ng) and human TK1 positive cell extract containing 25 μg of protein (CEM TK1+) and TK1 negative cell extract containing 25 µg of protein (CEM TK1−) were electrophoresed using SDS-PAGE, followed by Western blots with […] of mAb1 diluted in TBS containing 3% of non-fat dry milk (FIG. 3C). Western blot results with […] of mAb2 diluted in TBS containing 3% of non-fat dry milk mAb 2 (FIG. 3D).
(§2) ECL dot blot assay was carried out as described previously (He et al., 2000). In brief, 3 μl of recombinant enzyme at varying concentrations ranged from 20 to 0.6 ng was applied on nitrocellulose membrane (Thermo scientific, Germany). The membrane was blocked in non-fat dry milk 10% (Bio-Rad) for 1 h and then incubated with the hybridoma supernatants or antisera and incubated for overnight at 4° C. Then after the membrane was washed and incubated with a biotinylated second antibody conjugated with horseradish peroxidase directed against mouse (GE healthcare, UK) for 1 h at room temperature. Followed by adding ECL reagent. Finally, the signal was detected by ChemiDoc Imaging System BIO-RAD.

[2] = target: T2, recombinant human TK1; experiment: ECL dot blot with recombinant TK1, 20 to 0.6 ng
Procedure: as §1, §2

[3] = target: T3, recombinant equine TK1; experiment: ECL dot blot with recombinant TK1, 20 to 0.6 ng
Procedure: as §1, §2

[4] = target: T4, human cytosolic TK1 in CEM TK1+ cell …; experiment: Western blot after SDS-PAGE of denatured cell extract
Procedure: as §1
(§3) Western blot assay: recombinant canine TK1, human recombinant TK1 ([…]) and cytosolic TK1 from human (CEM+/−) containing 25 µg of proteins were diluted in a denaturing sample buffer, boiled, and loaded onto a 12% polyacrylamide gel. The gel was electrophoresed in SDS running buffer. […]

[5] = target: T5, recombinant canine TK1; experiment: Quartz Crystal Microbalance, antibody immobilized, recombinant canine TK1 injected
Procedure: The kinetics of the interaction between the two monoclonal antibodies, mAb1 and mAb2 (150 kDa), and canine recombinant TK1 was measured by a Quartz Crystal Microbalance (QCM) technology. To characterize binding interactions, the monoclonal antibody was immobilized on the sensor surface and the sample containing recombinant canine TK1 was injected over the sensor surface. […] The signal output is given in frequency (Hz) and is directly related to changes in mass on the sensor surface.

[6] = target: T4, human cytosolic TK1 in CEM TK1+ cell …; experiment: Western blot after SDS-PAGE, mAb2 at 2 pg/ml as printed
Procedure: as §1, §3

[7] = target: T1, recombinant feline TK1; experiment: ECL dot blot with recombinant TK1
Procedure: as §1, §2

[8] = target: T2, recombinant human TK1; experiment: ECL dot blot with recombinant TK1
Procedure: as §1, §2

[9] = target: T3, recombinant equine TK1; experiment: ECL dot blot with recombinant TK1
Procedure: as §1, §2

Row | binding result [1] | binding result [2] | binding result [3] | binding result [4] | Kd [5] [nM] | koff [5] [s⁻¹] | kon [5] [M⁻¹ s⁻¹] | binding result [6] | binding result [7] | binding result [8] | binding result [9] | Binder
1 | binds | binds | binds | binds | 0.3 to 0.75 | 6.1e-05 to 0.00023 | 240000 to 300000 |  |  |  |  | CTK1-1 (mAb1) (antibody, mouse IgG1, kappa, V domains shown, Mouse monoclonal IgG1-kappa from hybridoma sub-clone 9C8, raised against the active site peptide (amino acids 161-183) of human TK1; also called 9C8) VH: EVKLVESGGGLVQPGDSLRLSCATSGFTFNDHYMNWVRQPPGKALEWVAFIGNKAYGYKIEYNSSVKGRFTISRDDSQSFLYLQLNTLRSEDSATYYCARDGAFIYWGQGTVVTVSA VL: DVVMTQTPLSLPVSLGDQASISCRSSQSLVHSNGNTYLHWYLQKPGQSPKLLIYKVSNRFSGVPDRFSGSGSGSDFTLKISRVEAEDLGVYFCSQSTHIPYTFGGGTELEIRR
2 |  |  |  |  | 0.2 to 0.4 | 0.00011 to 0.00019 | 500000 to 540000 | no binding | no binding (tested: 20 to 0.6 ng) | no binding (tested: 20 to 0.6 ng) | no binding (tested: 20 to 0.6 ng) | CTK1-2 (mAb2) (antibody, mouse IgG2b, kappa, V domains shown, Mouse monoclonal IgG2b-kappa from hybridoma sub-clone 3H11, raised against the C-terminal peptide (amino acids 211-225) of dog TK1; also called 3H11) VH: EVQLQQSGAELVKPGASVKLSCTASGFNIKDTYMHWVKQRPEQGLEWIGRIDPANGNTKYDPKFQGKATITPDTSSTTAYLQLSSLTSEDTAVYYCARNRAYYGNYYAMDYWGQGTSVTVSS VL: DIVMTQSPSSLTVTAGEKVTMSCKSSQSLLNSRNQKNYLTWYQQKPGQPPKLLIYWASTRESGVPDRFTGSGFGTDFTLAISSVQAEDLAVYYCQNDYSYPFTFGSGTKLEIKR

Source: patent publication US20240044903A1 (KOZA NOVEL MATERIALS KOREA, published 2024)
